Test results: paper PMC8843743, “Targeting a proteolytic neoepitope on CUB domain containing protein 1 (CDCP1) for RAS-driven cancers” (The Journal of Clinical Investigation, 2022)

Target: T1, NTF of recombinant c-CDCP1 cut 3 (human, UniProt Q9H5V8 30-369)
T1 construct: CUB domain containing protein 1 (CDCP1), human; NTF with the native cut site 3 (proteolysis after K369); NTF (aa 30-369); The NTF alone was also made as NTF-Fc; also called NTF (cut 3); NTF (aa 30-369); source: BirA-Expi293, cotransfected with the CTF plasmid, purified (protein A or Ni-NTA)
T1 sequence (looked up): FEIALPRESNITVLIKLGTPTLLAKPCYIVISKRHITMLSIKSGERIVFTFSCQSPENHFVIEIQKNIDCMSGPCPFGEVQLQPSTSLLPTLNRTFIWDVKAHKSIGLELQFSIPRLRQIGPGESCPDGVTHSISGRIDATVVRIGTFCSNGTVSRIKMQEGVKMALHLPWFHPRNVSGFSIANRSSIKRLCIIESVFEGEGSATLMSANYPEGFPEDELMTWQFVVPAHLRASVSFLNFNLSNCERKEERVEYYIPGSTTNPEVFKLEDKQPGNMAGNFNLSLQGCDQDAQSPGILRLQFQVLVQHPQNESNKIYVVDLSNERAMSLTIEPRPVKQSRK
Assay: co-purification after co-expression; NTF and CTF ectodomain on separate plasmids cotransfected in BirA-Expi293; protein A or Ni-NTA affinity chromatography; SDS-PAGE
Settings: partners not purified

binding result: binds
B1: CTF ectodomain of recombinant c-CDCP1 cut 3 (domain or fragment, human, UniProt Q9H5V8 370-665, looked up)
chain: FVPGCFVCLESRTCSSNLTLTSGSKHKISFLCDDLTRLWMNVEKTISCTDHRYCQRKSYSLQVPSDILHLPVELHDFSWKLLVPKDRLSLVLVPAQKLQQHTHEKPCNTSFSYLVASAIPSQDLYFGSFCPGGSIKQIQVKQNISVTLRTFAPSFQQEASRQGLTVSFIPYFKEEGVFTVTPDTKSKVYLRTPNWDRGLPSLTSVSWNISVPRDQVACLTFFKERSGVVCQTGRAFMIIQEQRTRAEEIFSLDEDVLPKPSFHHHSFWVNISNCSPTSGKQLDLLFSVTLTPRTVD
notes: CUB domain containing protein 1 (CDCP1), human; CTF ectodomain with the native cut site 3 (proteolysis after K369); CTF (aa 370-665); also called CTF (cut 3); CTF (aa 370-665); source: BirA-Expi293, cotransfected with the NTF plasmid, purified (protein A or Ni-NTA)
